Measured values taken from article doi:10.1101/2021.09.02.458805 (bioRxiv, 2021).

T1: Cft1 (S. cerevisiae, UniProt Q06632 1-1357)
T1 sequence (looked up): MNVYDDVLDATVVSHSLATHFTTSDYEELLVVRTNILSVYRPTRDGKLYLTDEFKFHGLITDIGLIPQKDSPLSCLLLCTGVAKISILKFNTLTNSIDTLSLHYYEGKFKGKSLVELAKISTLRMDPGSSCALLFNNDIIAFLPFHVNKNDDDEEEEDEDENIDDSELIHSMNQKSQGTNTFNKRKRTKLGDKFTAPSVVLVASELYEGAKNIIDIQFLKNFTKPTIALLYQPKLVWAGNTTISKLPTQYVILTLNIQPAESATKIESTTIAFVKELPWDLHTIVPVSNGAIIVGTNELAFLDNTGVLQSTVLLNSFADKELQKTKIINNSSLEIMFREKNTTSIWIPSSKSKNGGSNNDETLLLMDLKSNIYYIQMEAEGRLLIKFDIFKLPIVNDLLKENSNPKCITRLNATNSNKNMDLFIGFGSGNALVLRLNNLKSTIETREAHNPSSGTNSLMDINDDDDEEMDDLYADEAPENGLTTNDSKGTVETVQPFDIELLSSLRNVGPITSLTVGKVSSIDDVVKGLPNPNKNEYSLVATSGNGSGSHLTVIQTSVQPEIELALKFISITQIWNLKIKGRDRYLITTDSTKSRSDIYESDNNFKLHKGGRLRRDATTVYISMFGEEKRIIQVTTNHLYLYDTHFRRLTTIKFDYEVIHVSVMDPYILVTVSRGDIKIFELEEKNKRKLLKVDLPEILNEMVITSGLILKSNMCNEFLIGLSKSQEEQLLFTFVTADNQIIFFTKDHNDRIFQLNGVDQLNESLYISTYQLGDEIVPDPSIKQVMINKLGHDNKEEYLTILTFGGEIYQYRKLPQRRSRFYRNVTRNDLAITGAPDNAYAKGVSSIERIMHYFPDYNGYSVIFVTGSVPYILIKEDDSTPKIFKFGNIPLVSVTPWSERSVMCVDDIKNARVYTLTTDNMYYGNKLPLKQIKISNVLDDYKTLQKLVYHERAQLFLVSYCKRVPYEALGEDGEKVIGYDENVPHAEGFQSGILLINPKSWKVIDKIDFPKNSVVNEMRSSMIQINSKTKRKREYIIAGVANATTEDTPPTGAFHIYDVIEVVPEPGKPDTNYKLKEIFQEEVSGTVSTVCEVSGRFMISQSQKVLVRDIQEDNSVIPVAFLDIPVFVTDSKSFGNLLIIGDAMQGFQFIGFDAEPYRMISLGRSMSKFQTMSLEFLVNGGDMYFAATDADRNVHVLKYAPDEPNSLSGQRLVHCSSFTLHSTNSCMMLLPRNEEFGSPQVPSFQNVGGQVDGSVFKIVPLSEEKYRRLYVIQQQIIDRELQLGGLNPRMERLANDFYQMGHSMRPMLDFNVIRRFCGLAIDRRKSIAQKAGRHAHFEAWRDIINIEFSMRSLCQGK

B1: Cft2(S), residues 1-720 (domain or fragment, S. cerevisiae, UniProt Q12102 1-720, looked up)
chain: MTYKYNCCDDGSGTTVGSVVRFDNVTLLIDPGWNPSKVSYEQCIKYWEKVIPEIDVIILSQPTIECLGAHSLLYYNFTSHFISRIQVYATLPVINLGRVSTIDSYASAGVIGPYDTNKLDLEDIEISFDHIVPLKYSQLVDLRSRYDGLTLLAYNAGVCPGGSIWCISTYSEKLVYAKRWNHTRDNILNAASILDATGKPLSTLMRPSAIITTLDRFGSSQPFKKRSKIFKDTLKKGLSSDGSVIIPVDMSGKFLDLFTQVHELLFESTKINAHTQVPVLILSYARGRTLTYAKSMLEWLSPSLLKTWENRNNTSPFEIGSRIKIIAPNELSKYPGSKICFVSEVGALINEVIIKVGNSEKTTLILTKPSFECASSLDKILEIVEQDERNWKTFPEDGKSFLCDNYISIDTIKEEPLSKEETEAFKVQLKEKKRDRNKKILLVKRESKKLANGNAIIDDTNGERAMRNQDILVENVNGVPPIDHIMGGDEDDDEEEENDNLLNLLKDNSEKSAAKKNTEVPVDIIIQPSAASKHKMFPFNPAKIKKDDYGTVVDFTMFLPDDSDNVNQNSRKRPLKDGAKTTSPVNEEDNKNEEEDGYNMSDPISKRSKHRASRYSGFSGTGEAENFDNLDYLKIDKTLSKRTISTVNVQLKCSVVILNLQSLVDQRSASIIWPSLKSRKIVLSAPKQIQNEEITAKLIKKNIEVVNMPLNKIVEFSTTI
B2: Pfs2 with SII tag, as subunit of the purified polymerase module (natural protein, S. cerevisiae, UniProt P42841 1-465, looked up)
chain: MDGHNQNQYQNQNQIQQSQQPPLKKYVTQRRSVDVSSPYINLYYNRRHGLPNLVVEPETSYTIDIMPPNAYRGRDRVINLPSKFTHLSSNKVKHVIPAIQWTPEGRRLVVATYSGEFSLWNASSFTFETLMQAHDSAVTTMKYSHDSDWMISGDADGMIKIWQPNFSMVKEIDAAHTESIRDMAFSSNDSKFVTCSDDNILKIWNFSNGKQERVLSGHHWDVKSCDWHPEMGLIASASKDNLVKLWDPRSGNCISSILKFKHTVLKTRFQPTKGNLLMAISKDKSCRVFDIRYSMKELMCVRDETDYMTLEWHPINESMFTLACYDGSLKHFDLLQNLNEPILTIPYAHDKCITSLSYNPVGHIFATAAKDRTIRFWTRARPIDPNAYDDPTYNNKKINGWFFGINNDINAVREKSEFGAAPPPPATLEPHALPNMNGFINKKPRQEIPGIDSNIKSSTLPGLSI
B3: Yth1 (natural protein, S. cerevisiae, UniProt Q06102 1-208, looked up)
chain: MSLIHPDTAKYPFKFEPFLRQEYSFSLDPDRPICEFYNSREGPKSCPRGPLCPKKHVLPIFQNKIVCRHWLRGLCKKNDQCEYLHEYNLRKMPECVFFSKNGYCTQSPDCQYLHIDPASKIPKCENYEMGFCPLGSSCPRRHIKKVFCQRYMTGFCPLGKDECDMEHPQFIIPDEGSKLRIKRDDEINTRKMDEEKERRLNAIINGEV

Tests used:
[1] = target: T1, Cft1; assay: cryo-EM structure
[2] = target: B1; assay: cryo-EM structure
[3] = target: B1; assay: cross-linking

B1: binds [1].

B2: binds [2].

B3: binds [3].
